Reference: US20230151089A1 (SYNGLE THERAPEUTICS B V, published 2023)

Key:
[1] = molecular target: T1, alpha-synuclein oligomers (UniProt P37840 1-140); assay: ELISA, alpha-Syn oligomer coated plate
[2] = molecular target: T1, alpha-synuclein oligomers; assay: ELISA, read from the graph, reference alpha-Syn monomer
[3] = molecular target: T1, alpha-synuclein oligomers; assay: ELISA on alpha-Syn oligomer coat; half of the highest OD 450 nm, drawn table
[4] = molecular target: T1, alpha-synuclein oligomers; assay: ELISA on alpha-Syn oligomer coat; row 'Titre (nM)' of the drawn table, concentration at DO (50%)
[5] = molecular target: T1, alpha-synuclein oligomers; assay: ELISA, alpha-Syn oligomer coated plate, exp 1
Procedure: (§1) Binding affinities (EC50 values) towards different antigens were determined from ELISA experiments using antigen coated plates as follows. Absorbance data was corrected for background absorption obtained by incubating antigen coated plates without adding primary antibody but keeping all other parameters constant. The background corrected absorbance values were then plotted against the log value of the antibody concentration.
(§2) The curve was fitted using the Graphpad Prism software using the common binding function Abs450=Max/(1+10\hat{ }(([Log EC50−Log Ab]))) where “Abs450” is the background corrected experimental absorption, “Max” is the absorption upon complete binding saturation, “Log EC50” is the log of the EC50 value and “Log Ab” is the log of the antibody concentration.

[6] = molecular target: T1, alpha-synuclein oligomers; assay: ELISA, alpha-Syn oligomer coated plate, exp 2
Procedure: as §1, §2

[7] = molecular target: T1, alpha-synuclein oligomers; assay: ELISA, alpha-Syn oligomer coated plate, exp 3
Procedure: as §1, §2

[8] = molecular target: T1, alpha-synuclein oligomers; assay: ELISA, ratio of EC50 values, reference alpha-Syn fibrils
Procedure: as §1, §2

[9] = molecular target: T1, alpha-synuclein oligomers; assay: ELISA, ratio of binding affinities, reference alpha-Syn fibrils (FIG. 3)
Procedure: as §1, §2

[10] = molecular target: T1, alpha-synuclein oligomers; assay: ELISA on antigen-coated plate, antibody titrated in tenfold steps, OD 450-630 nm
Procedure: as §1, §2

[11] = molecular target: T1, alpha-synuclein oligomers; assay: ELISA on plates coated with ASO, ABO, AB fibrils, TAU oligo, TAU fibrils or no coat; antibody titrated, OD 450 nm

B1: 26F1 TaFv (tandem single-chain variable fragment) (scFv)
scFv: DVQLQESGPGLVKPSQSLSLTCTVTGYSITSDYAWNWIRQFPGNKLEWLGYISYSGNTYYNPSLKSRISITRDTSKNQFFLHLNSVTTEDTATYYCAGNYVRWGQGTLVTVSAGGGGSGGGGSGGGGSDVVMTQTPLTLSVTIGQPASISCKSSQSLLYTNGKTYLNWLLQRPGQSPKRLIYLVSKLDSGVPDRFSGSGSGTDFTLKISRVEAEDLGVYYCLQSSHFPHTFGSGTKLEIKGGGGSDVQLQESGPGLVKPSQSLSLTCTVTGYSITSDYAWNWIRQFPGNKLEWLGYISYSGNTYYNPSLKSRISITRDTSKNQFFLHLNSVTTEDTATYYCAGNYVRWGQGTLVTVSAGGGGSGGGGSGGGGSDVVMTQTPLTLSVTIGQPASISCKSSQSLLYTNGKTYLNWLLQRPGQSPKRLIYLVSKLDSGVPDRFSGSGSGTDFTLKISRVEAEDLGVYYCLQSSHFPHTFGSGTKLEIK
[1]
  EC50: ~2 nM
[2]
  specificity ratio of alpha-Syn oligomer compared to alpha-Syn monomer: ≥ 100
[3]
  DO (50%): 0.904
[4]
  EC50: 2.03 nM

B2: 26F1 scFv (single-chain variable fragment) (scFv)
scFv: DVQLQESGPGLVKPSQSLSLTCTVTGYSITSDYAWNWIRQFPGNKLEWLGYISYSGNTYYNPSLKSRISITRDTSKNQFFLHLNSVTTEDTATYYCAGNYVRWGQGTLVTVSAGGGGSGGGGSGGGGSDVVMTQTPLTLSVTIGQPASISCKSSQSLLYTNGKTYLNWLLQRPGQSPKRLIYLVSKLDSGVPDRFSGSGSGTDFTLKISRVEAEDLGVYYCLQSSHFPHTFGSGTKLEIK
[1]
  EC50: ~3.7 nM
[2]
  specificity ratio of alpha-Syn oligomer compared to alpha-Syn monomer: ≥ 100
[3]
  DO (50%): 0.744
[4]
  EC50: 3.66 nM

B3: antibody 26F1 (antibody, mouse IgG2a, kappa, V domains shown)
VH: DVQLQESGPGLVKPSQSLSLTCTVTGYSITSDYAWNWIRQFPGNKLEWLGYISYSGNTYYNPSLKSRISITRDTSKNQFFLHLNSVTTEDTATYYCAGNYVRWGQGTLVTVSA
VL: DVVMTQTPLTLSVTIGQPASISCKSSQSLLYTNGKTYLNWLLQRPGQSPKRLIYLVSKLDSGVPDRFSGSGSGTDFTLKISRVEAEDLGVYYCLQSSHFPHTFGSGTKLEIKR
notes: Mouse monoclonal; Isotype is said to be preferably IgG2a kappa; also called 26F1 antibody; IgG 26F1
[5]
  EC50: 0.039 nM
[6]
  EC50: 0.027 nM
[7]
  EC50: 0.09 nM
[8]
  fold preference over alpha-Syn fibrils: 20 fold
[9]
  binding affinity ratio alpha-Syn oligomers:alpha-Syn fibrils: ≥ 20 fold
[3]
  DO (50%): 1.31
[10]
  EC50 (read off the curve): ~0.2 nM
[4]
  EC50: 0.0966 nM
[11]
  EC50 (read off the curve): ~0.01 µg/mL
